# Source: the RNAGym collection of RNA variant scans (doi:10.7554/elife.80360)
# B1: Twister Ribozyme (parent)
# chain: AACACUGCCAAUGCCGGUCCCAAGCCCGGAUAAAAGUGGAGGGGGCGG
# Variants of: B1
# Assay: self-cleavage, relative activity (ratio to wild type); higher = more cleavage; co-transcriptional
row,Variant,self-cleavage
1,AACACUGCCAAUGCCGGUCCCAAGCCCGGAUAAAAGUGCAGGAGGCGG [G39C G43A],0.103
2,AACACUGCCAAUGCCGGUCCCAAGCCCGGAUAAAAGUGCAGGGGGCAG [G39C G47A],0.152
3,AACACUGCCAAUGCCGGUCCCAAGCCCGGAUAAAAGUGUAUGGGGCGG [G39U G41U],0.149
4,AACACUGCCAAUGCCGGUCCCAAGCCCGGAUAAAAGUGUACGGGGCGG [G39U G41C],0.121
5,AACACUGCCAAUGCCGGUCCCAAGCCCGGAUAAAAGUGUAAGGGGCGG [G39U G41A],0.0926
6,AACACUGCCAAUGCCGGUCCCAAGCCCGGAUAAAAGUGGGAGGGGCGG [A40G G41A],0.141
7,AACACUGCCAAUGCCGGUCCCAAGCCCGGAUAAAAGUGCAGGGGGCGA [G39C G48A],0.138
8,AACACUGCCAAUGCCGGUCCCAAGCCCGGAUAAAAGUGGGGGGGGCGG [A40G],0.153
9,AACACUGCCAAUGCCGGUCCCAAGCCCGGAUAAAAGUGGCGGGGGCGG [A40C],0.262
10,AACACUGCCAAUGCCGGUCCCAAGCCCGGAUAAAAGUGGCGGGGGCGC [A40C G48C],0.343
11,AACACUGCCAAUGCCGGUCCCAAGCCCGGAUAAAAGUGAAGGGGGUGG [G39A C46U],0.445
12,AACACUGCCAAUGCCGGUCCCAAGCCCGGAUAAAAGUGAAGGGGGAGG [G39A C46A],0.463
13,AACACUGCCAAUGCCGGUCCCAAGCCCGGAUAAAAGUGUAGGGGGCCG [G39U G47C],0.16
14,AACACUGCCAAUGCCGGUCCCAAGCCCGGAUAAAAGUGUAGGGGGCAG [G39U G47A],0.14
15,AACACUGCCAAUGCCGGUCCCAAGCCCGGAUAAAAGUGAAGGGGGCGU [G39A G48U],0.517
16,AACACUGCCAAUGCCGGUCCCAAGCCCGGAUAAAAGUGAAGGGGGCGA [G39A G48A],0.388
17,AACACUGCCAAUGCCGGUCCCAAGCCCGGAUAAAAGUGUAGUGGGCGG [G39U G42U],0.149
18,AACACUGCCAAUGCCGGUCCCAAGCCCGGAUAAAAGUGUAGAGGGCGG [G39U G42A],0.104
19,AACACUGCCAAUGCCGGUCCCAAGCCCGGAUAAAAGUGGCGCGGGCGG [A40C G42C],0.164
20,AACACUGCCAAUGCCGGUCCCAAGCCCGGAUAAAAGUGGCGGGUGCGG [A40C G44U],0.296
21,AACACUGCCAAUGCCGGUCCCAAGCCCGGAUAAAAGUGGCGGGAGCGG [A40C G44A],0.298
22,AACACUGCCAAUGCCGGUCCCAAGCCCGGAUAAAAGUGAAGGGGGCAG [G39A G47A],0.363
23,AACACUGCCAAUGCCGGUCCCAAGCCCGGAUAAAAGUGGCGGGGGUGG [A40C C46U],0.236
24,AACACUGCCAAUGCCGGUCCCAAGCCCGGAUAAAAGUGGCGGGGGGGG [A40C C46G],0.218
25,AACACUGCCAAUGCCGGUCCCAAGCCCGGAUAAAAGUGAAGCGGGCGG [G39A G42C],0.12
26,AACACUGCCAAUGCCGGUCCCAAGCCCGGAUAAAAGUGUAGGGUGCGG [G39U G44U],0.164
27,AACACUGCCAAUGCCGGUCCCAAGCCCGGAUAAAAGUGUAGGGGCCGG [G39U G45C],0.183

row,Variant,self-cleavage
1,AACACUGCCAAUGCCGGUCCCAAGCCCGGAUAAAAGUGGCAGGGGCGG [A40C G41A],0.115
2,AACACUGCCAAUGCCGGUCCCAAGCCCGGAUAAAAGUGGCUGGGGCGG [A40C G41U],0.157
3,AACACUGCCAAUGCCGGUCCCAAGCCCGGAUAAAAGUGAAGGGGACGG [G39A G45A],0.418
4,AACACUGCCAAUGCCGGUCCCAAGCCCGGAUAAAAGUGGGGGGGGAGG [A40G C46A],0.164
5,AACACUGCCAAUGCCGGUCCCAAGCCCGGAUAAAAGUGGGGGGGGUGG [A40G C46U],0.155
6,AACACUGCCAAUGCCGGUCCCAAGCCCGGAUAAAAGUGAAAGGGGCGG [G39A G41A],0.153
7,AACACUGCCAAUGCCGGUCCCAAGCCCGGAUAAAAGUGAAUGGGGCGG [G39A G41U],0.125
8,AACACUGCCAAUGCCGGUCCCAAGCCCGGAUAAAAGUGCAGGGCGCGG [G39C G44C],0.167
9,AACACUGCCAAUGCCGGUCCCAAGCCCGGAUAAAAGUGCAGGGAGCGG [G39C G44A],0.137
10,AACACUGCCAAUGCCGGUCCCAAGCCCGGAUAAAAGUGCAGGGGUCGG [G39C G45U],0.158
11,AACACUGCCAAUGCCGGUCCCAAGCCCGGAUAAAAGUGCAGGGGACGG [G39C G45A],0.12
12,AACACUGCCAAUGCCGGUCCCAAGCCCGGAUAAAAGUGCAGGGGCCGG [G39C G45C],0.105
13,AACACUGCCAAUGCCGGUCCCAAGCCCGGAUAAAAGUGGCGGCGGCGG [A40C G43C],0.157
14,AACACUGCCAAUGCCGGUCCCAAGCCCGGAUAAAAGUGCUGGGGGCGG [G39C A40U],0.165
15,AACACUGCCAAUGCCGGUCCCAAGCCCGGAUAAAAGUGCGGGGGGCGG [G39C A40G],0.164
16,AACACUGCCAAUGCCGGUCCCAAGCCCGGAUAAAAGUGCCGGGGGCGG [G39C A40C],0.114
17,AACACUGCCAAUGCCGGUCCCAAGCCCGGAUAAAAGUGAAGGAGGCGG [G39A G43A],0.152
18,AACACUGCCAAUGCCGGUCCCAAGCCCGGAUAAAAGUGAAGGCGGCGG [G39A G43C],0.134
19,AACACUGCCAAUGCCGGUCCCAAGCCCGGAUAAAAGUGCAGGGGGUGG [G39C C46U],0.14
20,AACACUGCCAAUGCCGGUCCCAAGCCCGGAUAAAAGUGUAGGGGGCGU [G39U G48U],0.196
21,AACACUGCCAAUGCCGGUCCCAAGCCCGGAUAAAAGUGGCGGGGGCAG [A40C G47A],0.19
22,AACACUGCCAAUGCCGGUCCCAAGCCCGGAUAAAAGUGGCGGGGGCCG [A40C G47C],0.193
23,AACACUGCCAAUGCCGGUCCCAAGCCCGGAUAAAAGUGAAGGGCGCGG [G39A G44C],0.231
24,AACACUGCCAAUGCCGGUCCCAAGCCCGGAUAAAAGUGAAGGGUGCGG [G39A G44U],0.322
25,AACACUGCCAAUGCCGGUCCCAAGCCCGGAUAAAAGUGUAGGUGGCGG [G39U G43U],0.143
26,AACACUGCCAAUGCCGGUCCCAAGCCCGGAUAAAAGUGCAAGGGGCGG [G39C G41A],0.0895
27,AACACUGCCAAUGCCGGUCCCAAGCCCGGAUAAAAGUGCACGGGGCGG [G39C G41C],0.112
